The results in this text go back to the supplement of paper PMC10724198.

± gives the standard deviation of the averaged measurements.
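Also: PSI is a weighted mean of sequencing reads over stability bins, variants kept only with over 10 reads, mCherry proximal and sfGFP distal, peptide attached via GGGS linker.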

The subject of this series is Saccharomyces cerevisiae. The series can be described thus: protein stability index of tFT-peptide fusion (C-terminal peptide) (PSI (0-1 scale)); higher = more stable (slower turnover). The conditions noted are these: genetic background: wild type; temperature: 30 C.
NHLANHAGCQKT yielded a protein stability index of 0.667 ± 0.028.
For NHSTGLYAARLR, the protein stability index worked out at 0.725 ± 0.041.
Next, NHVAPNSPSPQD: 0.731 ± 0.027.
Next, NIIQTYITLNEL: 0.74 ± 0.12.
Next, NIMNKIFQKQKE: 0.642 ± 0.092; NIPAAGCPRATA: 0.711 ± 0.033.
Consider NKEPKRKHKNNK, for which the protein stability index worked out at 0.675 ± 0.017.
Then NKIKTSRKKNNQ, with 0.723 ± 0.017.
Then NKILIKKEQEEI, with 0.64356 ± 0.00045.
Next, NKKKKTAIPPKR: 0.672 ± 0.021; NKKKPKRTGKTQ: 0.674 ± 0.025; NKKKREYKGMNF: 0.686 ± 0.044.
In turn, NKKVRSKRKEMN registered a protein stability index of 0.637 ± 0.093.
Next, NKLKEKNEKYKV: 0.659 ± 0.025.
Then NKNKDNNEIVKK, with 0.677 ± 0.068; and NKNVGLKKSEKS, with 0.711 ± 0.019.
Next, NKQNKKKKTNKK: 0.6792 ± 0.0036; NKQTKTQPTKKE: 0.725 ± 0.015.
NKYTKSKKNNKE returned a protein stability index of 0.761 ± 0.14.
NLKCRMSLKTLG registered a protein stability index of 0.705 ± 0.0018.
Next, NMCHVYTIIPSK: 0.632 ± 0.024; NMPIGVRLLLGR: 0.652 ± 0.011; NNMNRKKGKKKT: 0.7027 ± 0.0018.
NNRKKKGRRRQE came in with a protein stability index of 0.674 ± 0.042.
Next, NPAVASPPPSSS: 0.737 ± 0.036.
Next, NPHLTLPVHPPH: 0.709 ± 0.026; NPHRRPPRAPWP: 0.689 ± 0.039.
Next, NRDGWWVSNGCR: 0.796 ± 0.07; NRGYRKDDKGMR: 0.689 ± 0.042.
As to NRHQVSKTEIKL, the protein stability index came to 0.72 ± 0.016.
In the case of NRMLRAQRKNRT, the protein stability index is 0.689 ± 0.033.
Then NRNVLKTRKKST, with 0.593 ± 0.018.
Then NSDEYKVYGEKL, with 0.661 ± 0.015; and NSEKKKKRKEKK, with 0.731 ± 0.024; and NSKTKNCYKTGS, with 0.705 ± 0.061.
Next, NSPPPPRLRSSL: 0.6937 ± 0.0018.
In turn, NSQAIKSTARQK had a protein stability index of 0.707 ± 0.00054.
Next, NSRLLPWRHELR: 0.784 ± 0.1; NSWCRFLRRCLV: 0.609 ± 0.074; NSWGRRAGMRGG: 0.731 ± 0.1.
Then NTIPRVTPDKSQ, with 0.642 ± 0.093.
Next, NTLTSCRPVASK: 0.704 ± 0.037.
As to NTQSRNKSYTER, the protein stability index was 0.671 ± 0.0091.
Next, NTRGRGQCCQGN: 0.576 ± 0.053; NTSLLMAWPIPP: 0.556 ± 0.032.
Then NVCSSFLAELVN, with 0.6051 ± 0.0029.
Next, NVEFVVERIREK: 0.6 ± 0.027; NVNMGSRGQFNF: 0.628 ± 0.026; NVRVLKCLWGVG: 0.619 ± 0.029.
Turning to NVTCRPDKNELT, the protein stability index amounted to 0.643 ± 0.035.
As for NYDTIYGLHLYT, the protein stability index worked out at 0.73 ± 0.015.
Next, NYSINQKNRKKN: 0.737 ± 0.013; PAAPGLDLRHDP: 0.623 ± 0.037.
Next, PAFGCTSRPFPG: 0.711 ± 0.031.
Turning to PAGILMQDSRRA, the protein stability index stood at 0.589 ± 0.051.
PAPLSPTHPPLP had a protein stability index of 0.71 ± 0.053.
Then PAPPAALPPPHP, with 0.637 ± 0.077; and PAPPHPPFPLLP, with 0.705 ± 0.018.
Next, PAPPLRVAPSRI: 0.67 ± 0.014.
Consider PAPPPLLPPPPP, for which the protein stability index was 0.597 ± 0.016.
Next, PAPPPLPSSSPP: 0.696 ± 0.0019; PAPPPPLPLHPR: 0.664 ± 0.046; PAPPPPRRPLPP: 0.657 ± 0.0086.
Next, PAPPPRPLPSPP: 0.713 ± 0.2; PAPPPSPRILLL: 0.542 ± 0.042; PAPPRYPLSSSS: 0.633 ± 0.011.
Next, PAPRPPSPLSAP: 0.687 ± 0.039; PAPSYHPVSPTA: 0.713 ± 0.0096; PAPTRPSPPPLP: 0.641 ± 0.013.
For the sequence PASPPSPLLLSL, the protein stability index came out at 0.74 ± 0.066.
Then PAVFPSLENVAL, with 0.732 ± 0.046; and PCINGSASRRSG, with 0.6189 ± 0.0058; and PCLASHTVDSLP, with 0.665 ± 0.013.
In the case of PCLLTNLPILPT, the protein stability index was 0.626 ± 0.077.
Next, PCLQQCLLIFLP: 0.566 ± 0.015; PCMCKRNKQYRG: 0.649 ± 0.016; PCPSVLPISLPH: 0.713 ± 0.06.
Then PCRPPSILAPHP, with 0.739 ± 0.0097; and PCSVLVWGVLLP, with 0.622 ± 0.032.
Then PCYCSAPRRSWA, with 0.749 ± 0.04.
PDCLSLCFSLFP returned a protein stability index of 0.664 ± 0.0071.
Then PDCVLSDENDAG, with 0.658 ± 0.0076; and PDLGRQPGGSET, with 0.647 ± 0.052; and PDYNEIIEYTEG, with 0.706 ± 0.033.
Next, PEEGQNASVRPC: 0.694 ± 0.023; PERPPVARATRP: 0.718 ± 0.049; PFFLVSPEPLSI: 0.666 ± 0.058.
In turn, PFFPSSFALLRS showed a protein stability index of 0.7166 ± 0.0067.
PFFPVALPFPHL came in with a protein stability index of 0.7 ± 0.021.
Sequence PFFSSRLFTLSL registered a protein stability index of 0.731 ± 0.015.
With PFLCCPRMSHFL, the protein stability index came out at 0.705 ± 0.013.
For PFLPSPPPPVPI, the protein stability index came to 0.712 ± 0.045.
Next, PFPAFPPVTSPP: 0.85 ± 0.054; PFPLPPPPFHPP: 0.691 ± 0.014.
PFPPPTDQTAHR: the protein stability index amounted to 0.728 ± 0.025.
Next, PFPPTPSPAPPL: 0.7097 ± 0.0025; PFRSFSPPPRAP: 0.742 ± 0.17.
Then PFRSPFSSSPTF, with 0.7772 ± 0.0077; and PFSLTTLFSPLL, with 0.691 ± 0.031.
In turn, PFSPLVPPLSFS registered a protein stability index of 0.76 ± 0.086.
With PFSSFLSLFPIL, the protein stability index amounted to 0.7 ± 0.0084.
For the sequence PFVSHLDRWDIR, the protein stability index was 0.712 ± 0.041.
Next, PFYTKSASPSSR: 0.669 ± 0.02; PGAHPVTLTIRL: 0.647 ± 0.027; PGHRVLKILHLR: 0.551 ± 0.055.
Then PGITRKTKKEKK, with 0.701 ± 0.041; and PGLGISHARCCF, with 0.695 ± 0.016.
Next, PGLPFAPLPPPL: 0.733 ± 0.014; PGPPPPPPPLYP: 0.6947 ± 0.0063.
PGPPSPPPPLYP displayed a protein stability index of 0.6783 ± 0.0056.
Next, PGQRSRGPPGRA: 0.737 ± 0.076.
Then PGQSSPLPPDVS, with 0.653 ± 0.078.
Then PGRSATSCPFLG, with 0.671 ± 0.019; and PGSCGATTRCLH, with 0.481 ± 0.075.
PGWPISNLGHAL: the protein stability index was 0.634 ± 0.077.
In turn, PHFLLLEDRPQT displayed a protein stability index of 0.705 ± 0.02.
